We go through five molecules from paper PMC8854993, “Acetylation at Lysine 86 of Escherichia coli HUβ Modulates the DNA-Binding Capability of the Protein” (Frontiers in Microbiology, 2021).

The chains are these.
B2: Escherichia coli HUα (natural protein, E. coli, UniProt P0ACF0 1-90, looked up)
chain: MNKTQLIDVIAEKAELSKTQAKAALESTLAAITESLKEGDAVQLVGFGTFKVNHRAERTGRNPQTGKEIKIAAANVPAFVSGKALKDAVK
notes: hupA amplified from chromosomal DNA of E. coli BL21(DE3) with primers from the start codon to the last codon, followed by His6; No tag cleavage is described; the printed mass (10,357.5 Da observed, 10,357.8 Da calculated) appears to fit the whole protein with His6; also called HUα2 (homodimer); hupA-His6; source: E. coli BL21-AI, purified (Ni-NTA, cation exchange RESOURCE S)

The target in one data set is T1, HUβ (Escherichia coli BL21(DE3), UniProt P0ACF4 1-90).
T1 sequence: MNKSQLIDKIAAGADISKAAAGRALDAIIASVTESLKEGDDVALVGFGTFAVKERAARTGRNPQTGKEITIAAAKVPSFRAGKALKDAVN
In words: EMSA; homodimer; 30 mM Tris pH 7.5, 100 mM NaCl, 0.02% Tween20, 0.5 mg/ml BSA; 30-bp DNA 1 µM, 18°C 10 min, 10% PAGE in TBE; long DNA 250 ng in 15 µL, 37°C 1 h, 0.5% agarose in. As to conditions: protein: recombinant; tags: C-terminal 6xHis; chain copies: 2; three strands; 2-nt gap in bottom strand between S16 and S17; blunt outer ends. On the technique in general: A gel shift assay detects complexes by their altered migration in electrophoresis.

Data set [1] concerns the molecule itself. Briefly: SEC; analytical SEC, Agilent Bio SEC-3 column in PBS (10 mM NaPO pH 7.4, 154 mM NaCl), 0.6 mg/mL protein, 20 uL injected, 0.35 mL/min, detection at 214 nm, molecular weight estimated from a standard curve; heterodimers made by mixing purified homodimers 1:1 on ice for 5 min.
The data set “Escherichia coli HUα” has as its target B2. Described as above. As to conditions: both partners purified.

B1: 30-bp duplex with 2-nt gap (dsDNA)
DNA 1: CCAACTTCCCTAACCCAGCTGCGATCCGTA
DNA 2: TACGGATCGCAGC
DNA 3: GGTTAGGGAAGTTGG
modifications: 2-nt gap in bottom strand
In the case of B1, the binding result with HUβ is recorded as “binds”.

What is called stoichiometry N is the number of molecules, sites or subunits per partner or assembly. Consider B2, for which the “stoichiometry N” value in data set [1] is 2.

B3: Escherichia coli HUβ (natural protein, E. coli, UniProt P0ACF4 1-90, looked up)
chain: MNKSQLIDKIAAGADISKAAAGRALDAIIASVTESLKEGDDVALVGFGTFAVKERAARTGRNPQTGKEITIAAAKVPSFRAGKALKDAVN
notes: hupB amplified from chromosomal DNA of E. coli BL21(DE3) with primers from the start codon to the last codon, followed by an XhoI site and His6; The reverse primer carries CTCGAG (XhoI) between hupB and the His codons, so Leu-Glu probably stands before His6; theoretical mass printed 10,290.7 Da; No tag cleavage is described; also called HUβ2 (homodimer); hupB-His6; source: E. coli BL21-AI, …
Regarding B3, the binding result in the data set with Escherichia coli HUα is listed as “binds”. The “stoichiometry N” value in data set [1] was 2.

B4: Escherichia coli HUβ acetylated at Lys67 (natural protein, E. coli, UniProt P0ACF4 1-90, looked up)
chain: MNKSQLIDKIAAGADISKAAAGRALDAIIASVTESLKEGDDVALVGFGTFAVKERAARTGRNPQTGKEITIAAAKVPSFRAGKALKDAVN
modifications: acetyl-lysine at 67
notes: from pBAD hupB(K67TAG)-His6, amber codon at Lys67 read as acetyl lysine; Same construct as m2 but with acetyl-lysine at 67; theoretical mass printed 10,332.7 Da; also called HUβ(K67ac); HUβ(K67ac)2 (homodimer)
Turning to B4, in the data set with Escherichia coli HUα, the binding result is “binds”. In addition, the “stoichiometry N” value in data set [1] is 2.

B5: Escherichia coli HUβ acetylated at Lys86 (natural protein, E. coli, UniProt P0ACF4 1-90, looked up)
chain: MNKSQLIDKIAAGADISKAAAGRALDAIIASVTESLKEGDDVALVGFGTFAVKERAARTGRNPQTGKEITIAAAKVPSFRAGKALKDAVN
modifications: acetyl-lysine at 86
notes: from pBAD hupB(K86TAG)-His6, amber codon at Lys86 read as acetyl lysine; Same construct as m2 but with acetyl-lysine at 86; theoretical mass printed 10,332.7 Da; also called HUβ(K86ac); HUβ(K86ac)2 (homodimer)
Regarding B5, the binding result with Escherichia coli HUα is given as “binds”. For the same molecule, the “stoichiometry N” value in data set [1] is 2.
